# Measured values reported in the Immune Epitope Database (IEDB).
# How the values were obtained:
# HLA-A*31:01 = test: IEDB peptide-MHC binding, purified MHC/competitive/fluorescence; filed as Kd, often an IC50 or EC50 that approximates it; ≥ and ≤ were set here for values at or beyond the usual limits of such assays
# HLA-A*03:01 [1] = test: as above; conditions: source organism: West Nile virus
# HLA-A*03:01 [2] = test: IEDB peptide-MHC binding, purified MHC/direct/fluorescence; filed as Kd, often an IC50 or EC50 that approximates it; ≥ and ≤ were set here for values at or beyond the usual limits of such assays
# HLA-A*11:01 [3] = test: as above
# HLA-B*15:03 = test: IEDB peptide-MHC binding, purified MHC/competitive/radioactivity; filed as Kd, often an IC50 or EC50 that approximates it; ≥ and ≤ were set here for values at or beyond the usual limits of such assays
# HLA-B*58:01 = test: as above
# HLA-B*15:01 [4] = test: IEDB peptide-MHC binding, purified MHC/competitive/fluorescence; filed as Kd, often an IC50 or EC50 that approximates it; ≥ and ≤ were set here for values at or beyond the usual limits of such assays; conditions: source organism: Shigella boydii CDC 3083-94
# HLA-A*02:01 = test: as above; conditions: source organism: Shigella boydii CDC 3083-94
# HLA-A*26:01 = test: as above; conditions: source organism: Bacillus thuringiensis serovar israelensis ATCC 35646
# HLA-A*32:01 = test: IEDB peptide-MHC binding, purified MHC/competitive/radioactivity; filed as Kd, often an IC50 or EC50 that approximates it; ≥ and ≤ were set here for values at or beyond the usual limits of such assays
# HLA-B*08:01 = test: as above; conditions: source organism: Vaccinia virus WR
# HLA-A*11:01 [5] = test: IEDB peptide-MHC binding, purified MHC/competitive/fluorescence; ≥ and ≤ were set here for values at or beyond the usual limits of such assays
# HLA-A*30:01 = test: IEDB peptide-MHC binding, purified MHC/competitive/radioactivity; filed as Kd, often an IC50 or EC50 that approximates it; ≥ and ≤ were set here for values at or beyond the usual limits of such assays; conditions: source organism: Vaccinia virus WR
# HLA-B*15:01 [6] = test: as above
# HLA-B*53:01 = test: as above; conditions: source organism: Dengue virus 4 Philippines/H241/1956
# HLA-B*27:05 = test: IEDB peptide-MHC binding, purified MHC/direct/fluorescence; filed as Kd, often an IC50 or EC50 that approximates it; ≥ and ≤ were set here for values at or beyond the usual limits of such assays; conditions: source organism: West Nile virus
# HLA-B*48:01 = test: as above; conditions: source organism: West Nile virus
# HLA-A*29:02 = test: as above; conditions: source organism: West Nile virus
# HLA-B*40:01 = test: as above; conditions: source organism: West Nile virus
# HLA-A*69:01 = test: as above; conditions: source organism: West Nile virus
# HLA-B*44:02 = test: as above; conditions: source organism: West Nile virus
# HLA-A*01:01 = test: as above; conditions: source organism: West Nile virus
# HLA-B*57:01 = test: as above; conditions: source organism: West Nile virus
# HLA-B*46:01 [7] = test: as above; conditions: source organism: West Nile virus
# HLA-B*18:01 = test: as above; conditions: source organism: West Nile virus
# HLA-B*46:01 [8] = test: IEDB peptide-MHC binding, purified MHC/competitive/fluorescence; filed as Kd, often an IC50 or EC50 that approximates it; ≥ and ≤ were set here for values at or beyond the usual limits of such assays; conditions: source organism: Clostridium botulinum B str. Eklund 17B (NRP)
# [9] = source organism: West Nile virus
# [10] = source organism: Escherichia coli O157:H7
# [11] = source organism: Vaccinia virus WR
# [12] = source organism: Mycobacterium tuberculosis
# [13] = source organism: Yellow fever virus
# [14] = source organism: Dengue virus 1 Brazil/97-11/1997
# [15] = source organism: Vaccinia virus Copenhagen
sequence,measurement,setting,value
VLALLAFFR,Kd,HLA-A*31:01; [9],1080 nM
same,Kd,HLA-A*03:01 [1],160 nM
RVIYPANQK,Kd,HLA-A*03:01 [2]; [10],35 nM
same,Kd,HLA-A*11:01 [3]; [10],6.9 nM
same,Kd,HLA-A*31:01; source organism: Escherichia coli O157:H7 str. Sakai,72.2 nM
SSMKGENVF,Kd,HLA-B*15:03; [11],47 nM
TAAVLLLVTH,Kd,HLA-B*58:01; source organism: Dengue virus 3 Singapore/8120/1995,304 nM
FTFEWNGRI,Kd,HLA-B*15:01 [4],≥ 20000 nM
same,Kd,HLA-A*02:01,14.5 nM
NTIRNAASF,Kd,HLA-A*26:01,73.5 nM
LLSRFFNMI,Kd,HLA-A*32:01; [11],714 nM
same,Kd,HLA-B*15:03; [11],821 nM
same,Kd,HLA-B*08:01,1640 nM
ENKKNLSEQ,IC50,HLA-A*11:01 [5]; source organism: Sudan ebolavirus,≥ 75400 nM
KMTRVFNKF,Kd,HLA-A*32:01; [11],10600 nM
same,Kd,HLA-A*30:01,15100 nM
same,Kd,HLA-B*15:01 [6]; [11],7560 nM
same,Kd,HLA-B*15:03; [11],0.431 nM
same,Kd,HLA-B*08:01,10600 nM
AADEPPLVR,IC50,HLA-A*11:01 [5]; source organism: Vaccinia virus,≥ 142000 nM
AANCFGQHV,Kd,HLA-B*15:03; [11],21.8 nM
LLKICIKYF,Kd,HLA-B*15:01 [6]; [11],5230 nM
RSADGSPPY,Kd,HLA-A*03:01 [2]; [12],2500 nM
same,Kd,HLA-A*11:01 [3]; [12],25.7 nM
same,Kd,HLA-A*31:01; source organism: Mycobacterium tuberculosis variant bovis BCG str. Pasteur 1173P2,≥ 20000 nM
WVAEIQPQW,Kd,HLA-B*53:01,6.52 nM
same,Kd,HLA-B*58:01; source organism: Dengue virus 4 Philippines/H241/1956,57.6 nM
KIRNRIERL,Kd,HLA-B*27:05,≥ 20000 nM
same,Kd,HLA-B*48:01,≥ 20000 nM
same,Kd,HLA-A*29:02,≥ 20000 nM
same,Kd,HLA-A*03:01 [2]; [9],≥ 20000 nM
same,Kd,HLA-B*40:01,≥ 20000 nM
same,Kd,HLA-A*69:01,≥ 20000 nM
same,Kd,HLA-B*44:02,≥ 20000 nM
same,Kd,HLA-A*01:01,≥ 20000 nM
same,Kd,HLA-B*57:01,≥ 20000 nM
same,Kd,HLA-B*46:01 [7],≥ 20000 nM
same,Kd,HLA-A*11:01 [3]; [9],≥ 20000 nM
same,Kd,HLA-B*18:01,≥ 20000 nM
GTSGSPIVDK,IC50,HLA-A*11:01 [5]; [9],212 nM
TINAVASRK,Kd,HLA-A*11:01 [3]; [13],4.3 nM
same,Kd,HLA-A*31:01; [13],801 nM
FQSMHFTDM,Kd,HLA-B*15:03; [11],5.12 nM
same,Kd,HLA-B*08:01,84.4 nM
RSQVGVGVF,Kd,HLA-B*15:01 [6]; [14],26 nM
LIRPKILSM,Kd,HLA-B*15:01 [6]; [11],10.4 nM
same,Kd,HLA-B*08:01,0.548 nM
SLNTSTLGF,Kd,HLA-A*32:01; [15],416 nM
same,Kd,HLA-B*15:01 [6]; [15],1.67 nM
same,Kd,HLA-B*15:03; [15],13.1 nM
WASVKKDLIS,Kd,HLA-B*58:01; [14],81.3 nM
MKYCSYQSF,Kd,HLA-B*15:03; [11],1.55 nM
YLFNAIETM,Kd,HLA-B*15:01 [6]; [11],1.41 nM
KMYACKNDM,Kd,HLA-B*15:03; [11],42.9 nM
SPVMSGNSY,Kd,HLA-B*15:03; [11],363 nM
FFKDGMAEV,Kd,HLA-B*46:01 [8],398 nM
